Source: patent publication US20220073596A1 (CITRYLL B V, published 2022)
Where no end group is shown, it is not given here. [ ]: non-standard residue; d: D form. Cit = NC(=O)NCCC[C@H](N)C(=O)O

Key:
[1] = biological target: T1, Arginine containing control peptide of Histone H2A N-terminus (SEQ ID NO: 3), SGRGKQGGKARA (free N-terminal NH2 group); assay: peptide ELISA
T1 construct: Control peptide with arginine in place of citrulline
T1 peptide: SGRGKQGGKARA

[2] = biological target: T2, N-terminal citrullinated peptide of Histone H2A (SEQ ID NO: 1), SGCitGKQGGKARA (also: biotin, place not given here); assay: peptide ELISA, biotin peptide on neutravidin
T2 peptide: SG[Cit]GKQGGKARA
Experimental: Optical density was measured by 450 nm and is a measure for the affinity of the antibodies used.

B1: Mouse monoclonal antibody Rmmab22.101 (antibody, V domains shown)
VH: RIQLVQSGPELKKPGEAVKISCKASGYTFTNYGMHWMKQTPGKDFRWMGWINTYSGEATYVDDFKGRFAFSLGTSASTAYLQINNLKNDDTATYFCLRGYTYQSFDEGGDYWGQGTALTVSS
VL: not shown
notes: Mouse monoclonal from hybridoma DSMZ ACC 3031; also called MQ22.101
binding result [1]: no binding | binding result [2]: binds
